Results reported in US11066482B2, “Specific plasmin inactivation by anticatalytic antibody” (priority 2017, dated 2021).

Assays:
[1] = target: plasmin-mediated cleavage of factor V (Homo sapiens, UniProt P00747); assay: Factor V cleavage by plasmin, SDS-PAGE; format: biochemical; details: EACA 1 mM or Pi 5 ug, 1 hr RT
Procedure: FIGS. 4A-4D show comparative inhibition of factor V cleavage and human clot fibrinolysis (dissolution) by Pi, EACA and a2AP. […] The relative migration of molecular weight standards is shown (kDa). […] Human plasma was clotted with CaCl2 (10 mM) and thrombin (1 U/ml) in the presence of trace amounts of 1251 fibrinogen for 1 h at 37 deg. C. After washing in 1 ml of TBS pH 7.4, tPA (5 nM) was added in the presence of various amounts of Pi (62.5 to 1000 nM), EACA (0.125 mM to 2 mM) or no inhibitor. After 2.5 h the amount of fibrinolysis was determined by measuring the amount of 125I-fibrin dissolved in the supernatant. Means of duplicate observations are shown. […] Clots were formed as above in the presence of human plasminogen (2 uM) and a2AP (1 uM) or Pi (1 uM) and various amounts of tPA (0-10 nM). Clot dissolution was monitored in duplicate over 2 h in microtiter plate wells at A405 nm. […] Human plasma clots were mixed with various concentrations of Pi IgG, Pi Fab and chimeric Pi Fab (25 nM-400 nM) and plasmin was activated by urokinase. The amount of clot lysis was determined as described in Methods.
Factor V cleavage. Human factor V (2 ug, IHFV, Innovative Research) was mixed with plasmin (0.05 ug) for 1 hr at RT in the presence of EACA (1 mM), Pi (5 ug) or a control monoclonal antibody (digoxin, 5 ug). […] Protein bands were detected by staining with Coomassie blue dye.

human tPA = human tPA (Homo sapiens, UniProt P00750); assay: Specificity of Pi binding (ELISA); details: plate coated 10 ug/ml
human tPA, sequence (P00750 36-562): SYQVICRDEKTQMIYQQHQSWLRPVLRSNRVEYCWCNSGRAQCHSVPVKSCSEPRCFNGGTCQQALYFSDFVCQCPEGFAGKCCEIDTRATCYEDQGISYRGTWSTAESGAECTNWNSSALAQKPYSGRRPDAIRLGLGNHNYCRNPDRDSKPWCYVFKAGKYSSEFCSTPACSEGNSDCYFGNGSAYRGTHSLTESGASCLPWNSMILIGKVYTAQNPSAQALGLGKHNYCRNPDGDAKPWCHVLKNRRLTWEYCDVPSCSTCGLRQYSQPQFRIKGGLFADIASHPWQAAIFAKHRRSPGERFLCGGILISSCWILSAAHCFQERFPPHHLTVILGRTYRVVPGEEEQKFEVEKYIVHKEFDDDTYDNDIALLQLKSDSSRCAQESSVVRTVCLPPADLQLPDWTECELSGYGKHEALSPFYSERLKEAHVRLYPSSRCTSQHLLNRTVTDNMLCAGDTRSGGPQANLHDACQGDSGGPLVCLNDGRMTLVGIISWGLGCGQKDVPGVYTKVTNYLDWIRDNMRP
Procedure: (§1) FIGS. 3A-3D show binding and inhibitory specificity of Pi. […] The effect of various concentrations of Pi (0-2000 nM) on clots formed with human, baboon or African green monkey plasmas. Clot lysis was measured in microtiter plates after addition of urokinase as described in Methods.
(§2) Specificity of Pi binding. The binding of the Pi to different serine proteases was assessed by ELISA in 96-well plates coated with human plasminogen, mouse plasminogen, tPA, trypsin or chymotrypsin (10 ug/ml) and blocked with 1% BSA. After incubation and washing, Pi or control monoclonal antibody supernatants (anti-digoxin) were added to the wells for 1 h in triplicate. Then goat anti mouse antibody conjugated with HRP (1:5000, Sc-2005, Santa Cruz) was then added. The plate was washed after incubation for 1 h. TMB was added to the wells and absorbance at 370 nm was recorded.

mouse plasminogen = mouse plasminogen (Mus musculus, UniProt P20918); assay: Specificity of Pi binding (ELISA); details: plate coated 10 ug/ml
mouse plasminogen, sequence (P20918 20-812 limits assumed): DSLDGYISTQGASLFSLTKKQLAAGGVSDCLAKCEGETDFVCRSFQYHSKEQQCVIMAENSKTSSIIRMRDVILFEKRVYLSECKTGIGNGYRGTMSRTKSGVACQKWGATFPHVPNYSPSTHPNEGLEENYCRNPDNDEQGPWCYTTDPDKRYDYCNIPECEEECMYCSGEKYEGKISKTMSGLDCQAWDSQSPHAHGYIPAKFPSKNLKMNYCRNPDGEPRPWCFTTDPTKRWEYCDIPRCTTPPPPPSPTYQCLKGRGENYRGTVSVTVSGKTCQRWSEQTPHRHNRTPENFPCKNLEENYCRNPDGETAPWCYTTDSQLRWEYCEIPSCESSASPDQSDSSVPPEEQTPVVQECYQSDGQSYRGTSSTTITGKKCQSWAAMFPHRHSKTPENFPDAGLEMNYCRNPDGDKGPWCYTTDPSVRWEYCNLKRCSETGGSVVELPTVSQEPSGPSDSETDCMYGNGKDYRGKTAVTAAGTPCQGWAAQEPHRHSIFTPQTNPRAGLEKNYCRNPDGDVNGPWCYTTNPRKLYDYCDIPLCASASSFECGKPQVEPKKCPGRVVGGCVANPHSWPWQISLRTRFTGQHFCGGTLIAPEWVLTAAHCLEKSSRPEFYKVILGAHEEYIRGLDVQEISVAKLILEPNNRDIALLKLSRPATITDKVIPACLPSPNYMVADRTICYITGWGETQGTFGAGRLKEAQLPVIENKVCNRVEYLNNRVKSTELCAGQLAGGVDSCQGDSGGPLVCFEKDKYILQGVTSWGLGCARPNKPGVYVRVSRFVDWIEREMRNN
Procedure: as §1, §2

trypsin = assay: Specificity of Pi binding (ELISA); details: plate coated 10 ug/ml
Procedure: as §1, §2

chymotrypsin = assay: Specificity of Pi binding (ELISA); details: plate coated 10 ug/ml
Procedure: as §1, §2

Plasmin = Plasmin (Homo sapiens, UniProt P00747); assay: Velocity of S2251 substrate cleavage (Michaelis-Menten); format: biochemical; details: plasmin 100 nM, Pi 50 nM, S2251 0.1 to 4 mM
Plasmin, sequence (P00747 97-580 limits assumed): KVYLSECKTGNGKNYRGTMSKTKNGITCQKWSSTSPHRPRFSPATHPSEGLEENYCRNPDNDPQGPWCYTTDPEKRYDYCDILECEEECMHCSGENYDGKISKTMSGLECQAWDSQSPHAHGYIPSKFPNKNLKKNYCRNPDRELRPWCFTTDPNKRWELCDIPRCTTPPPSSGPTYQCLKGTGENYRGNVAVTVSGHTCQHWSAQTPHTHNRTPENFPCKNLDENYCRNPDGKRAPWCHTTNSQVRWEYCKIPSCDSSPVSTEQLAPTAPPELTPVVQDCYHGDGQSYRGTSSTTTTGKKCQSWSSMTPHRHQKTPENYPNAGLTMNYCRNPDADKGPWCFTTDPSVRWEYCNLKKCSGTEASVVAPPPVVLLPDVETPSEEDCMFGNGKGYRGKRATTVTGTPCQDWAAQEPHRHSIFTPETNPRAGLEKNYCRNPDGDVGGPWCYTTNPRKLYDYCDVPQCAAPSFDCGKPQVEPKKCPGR
Plasmin, sequence (P00747 581-810 limits assumed): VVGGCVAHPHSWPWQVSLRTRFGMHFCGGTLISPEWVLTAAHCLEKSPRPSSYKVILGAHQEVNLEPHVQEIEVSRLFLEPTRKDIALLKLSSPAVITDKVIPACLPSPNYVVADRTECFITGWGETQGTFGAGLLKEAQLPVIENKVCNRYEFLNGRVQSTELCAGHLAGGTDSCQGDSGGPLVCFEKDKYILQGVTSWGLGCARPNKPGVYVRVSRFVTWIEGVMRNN
Procedure: FIGS. 2A-2D show comparative inhibition of plasmin activity by Pi EACA and a2AP. […] The percent residual activity of plasmin as a function of the log concentration of inhibitor is shown. […] Human plasmin (100 nM, Hematologic Technologies, Inc.) was mixed with or without Pi (50 nM) in the presence of the substrate S2251 (0.1 to 4 mM). The initial rate of substrate cleavage (6 min.) was monitored at A405. Data were plotted and analyzed using Michaelis-Menten kinetics by the Graphpad Prism Program. Means (duplicate observations) are shown and are representative of 4 separate experiments. […] The means of duplicate observations are shown. […] Plasmin (25 nM) was mixed with various concentrations (0-200 nM) of mouse Fab or chimeric Fab (cFab) and S2251 (0.5 mM) in TBS buffer pH 7.4. Plasmin activity was measured by the release of paranitroanilide product at A405 over time.
The effect of Pi on the velocity of substrate cleavage by human plasmin was examined. Human plasmin (100 nM, Hematologic Technologies, Inc.) was mixed with or without Pi (50 nM) in the presence of the substrate S2251 (0.1 to 4 mM). The initial rate of substrate cleavage (6 min.) was monitored at A405. Data were plotted and analyzed using Michaelis-Menten kinetics by the Graphpad Prism Program.

[2] = system: plasmin-mediated fibrinolysis of human fibrin clots; assay: Fibrinolysis of 125I-fibrin human plasma clots with tPA, EACA vs Pi; format: biochemical; details: tPA 5 nM, 2.5 h; Pi 62.5 to 1000 nM, EACA 0.125 mM to 2 mM
human clots = assay: Primate clot lysis, microtiter plate, urokinase; format: biochemical; details: human plasma, Pi 0-2000 nM, urokinase 10 U
Procedure: as §1
(§3) The ability of Pi to inhibit primate clot lysis was also examined in a microtiter plate assay. Human, baboon or African green monkey plasma (5 ul) was added to 96-well plates in the presence of various concentrations of Pi (0-2000 nM), CaCl2 (2 mM), thrombin (0.125 U/ml) and human fibrinogen (2 mg/ml) and urokinase (10 U). The wells were incubated at 37° C., clot lysis was recorded kinetically for 120 min. and the time required for complete clot lysis was recorded.

baboon clots = assay: Primate clot lysis, microtiter plate, urokinase; format: biochemical; details: baboon plasma, Pi 0-2000 nM, urokinase 10 U
Procedure: as §1, §3

[3] = system: African green monkey clots; assay: Primate clot lysis, microtiter plate, urokinase; format: biochemical; details: African green monkey plasma, Pi 0-2000 nM, urokinase 10 U
Procedure: as §1, §3

[4] = system: human clot lysis initiated by r-tPA; assay: Clot lysis assay of Pi, MAb 340 and control MAb with r-tPA; format: biochemical; details: human plasma, MAb 20 ug, r-tPA 2 nm
Procedure: as §1
The comparative effects of Pi, MAb 340 and a control MAb (anti-digoxin) were examined in a clot lysis assay in microtiter plates. Human plasma (50 ul) was mixed with the MAbs (20 ug) in duplicate and then clotted with CaCl2 and thrombin, with or without recombinant (r)-tPA (2 nm). Clot dissolution at 37 deg. C. was monitored at 405 nm for 120 min. The time required to fully dissolve the clots during the 120 min. observation period was recorded.

plasmin-mediated cleavage of factor V, sequence (P00747 97-580 limits assumed): as the sequence (P00747 97-580 limits assumed) above
plasmin-mediated cleavage of factor V, sequence (P00747 581-810 limits assumed): as the sequence (P00747 581-810 limits assumed) above

B1: Pi: mouse monoclonal antibody plasmin inhibitor binding plasmin protease domain loops 4 and 5; LC SEQ ID NO:1, HC SEQ ID NO:4 (antibody)
heavy: EVKLLESGGGLVQPGGSLKLSCAASGFDFSRYWMSWVRQAPGKGLEWIGEINPDSSTINYTPSLKDKFIISRDNAKNSLYLQMSKVRSEDTALYYCASYCGYSYDALDCWGQGTSVTVSSAKTTPPSVYPLAPGSAAQTNSMVTLGCLVKGYFPEPVTVTWNSGSLSSGVHTFPAVLQSDLYTLSSSVTVPSSTWPSETVTCNVAHPASSTKVDKKIVPRDCGCKPCICTVPEVSSVFIFPPKPKDVLTITLTPKVTCVVVDISKDDPEVQFSWFVDDVEVHTAQTQPREEQFNSTFRSVSELPIMHQDWLNGKEFKCRVNSVAFPAPIEKTISKTKGRPKAPQVYTIPPPKEQMAKDKVSLTCMITDFFPEDITVEWQWNGQPAENYKNTQPIMDTDGSYFVYGKLNVQKSNWEAGNTFTCSVLHEGLHNHHTEKSLSHSPGK
light: DIQMTQSPSSLSASLGGKVSITCKASQDINKYISWYQHKPGKGPRLLIHYTSTLQPGIPSRFSGSGSGRDYSFSISNLEPEDIATYYCLQYDNLYTFGGGTKLEIKRADAAPTVSIFPPSSEQLTSGGASVVCFLNNFYPKDINVKWKIDGSERQNGVLNSWTDQDSKDSTYSMSSTLTLTKDEYERHNSYTCEATHKTSTSPIVKSFNWNEC
effect on Factor V cleavage by plasmin [1]: Factor V cleavage was attenuated | specific binding vs control anti-digoxin antibody (human tPA): no specific binding | specific binding vs control anti-digoxin antibody (mouse plasminogen): no specific binding | specific binding vs control anti-digoxin antibody (trypsin): no specific binding | specific binding vs control anti-digoxin antibody (chymotrypsin): no specific binding | effect on Vmax of plasmin cleavage of S2251 (Plasmin): reduced the Vmax of plasmin cleavage of S2251 | effect on fibrinolysis of human fibrin clots [2]: significantly suppressed | effect on clot lysis (human clots): markedly prolonged plasmin-induced fibrinolysis | effect on clot lysis (baboon clots): dose-related suppression | effect on clot lysis [3]: dose-related suppression | clot dissolution during 120 min [4]: did not significantly dissolve
